Results taken from patent US20250003951A1 (OXFORD UNIVERSITY INNOVATION, published 2025).

B1: OX289 Peptides 73/74 clone 2 TCR (TCR)
TCR alpha: ELKVEQNPLFLSMQEGKNYTIYCNYSTTSDRLYWYRQDPGKSLESLFVLLSNGAVKQEGRLMASLDTKARLSTLHITAAVHDLSATYFCAVEETSGSRLTFGEGTQLTVNPDIQNPDPAVYQLRD
TCR beta 1: EAQVTQNPRYLITVTGKKLTVTCSQNMNHEYMSWYRQDPGLGLRQIYYSMNVEVTDKGDVPEGYKVSRKEKRNFPLILESPSPNQTSLYFCASSLRQGISPEQFFGPGTRLTVLEDLKNVFPPEVAVFEPS
TCR beta 2: EAQVTQNPRYLITVTGKKLTVTCSQNMNHEYMSWYRQDPGLGLRQIYYSMNVEVTDKGDVPEGYKVSRKEKRNFPLILESPSPNQTSLYFCASSERQGITEAFFGQGTRLTVVEDLNKVFPPEVAVFEPS
B2: OX289 Peptides 73/74 clone 3 TCR (TCR)
TCR alpha: AQSVTQLDSQVPVFEEAPVELRCNYSSSVSVYLFWYVQYPNQGLQLLLKYLSGSTLVKGINGFEAEFNKSQTSFHLRKPSVHISDTAEYFCAVSGTGANSKLTFGKGITLSVRPDIQNPDPAVYQLRD
TCR beta 1: GAGVSQSPSNKVTEKGKDVELRCDPISGHTALYWYRQSLGQGLEFLIYFQGNSAPDKSGLPSDRFSAERTGGSVSTLTIQRTQQEDSAVYLCASSDPISGRGDEQFFGPGTRLTVLEDLKNVFPPEVAVFEPS
TCR beta 2: GAGVSQSPSNKVTEKGKDVELRCDPISGHTALYWYRQSLGQGLEFLIYFQGNSAPDKSGLPSDRFSAERTGGSVSTLTIQRTQQEDSAVYLCASSFGGGAWNEQFFGPGTRLTVLEDLKNVFPPEVAVFEPS
B3: OX289 Peptides 73/74 clone 1 TCR (TCR, V domains shown)
V domain 1: RGEDVEQSLFLSVREGDSSVINCTYTDSSSTYLYWYKQEPGAGLQLLTYIFSNMDMKQDQRLTVLLNKKDKHLSLRIADTQTGDSAIYFCAESPSDGQKLLFARGTMLKVDL
V domain 2: EAQVTQNPRYLITVTGKKLTVTCSQNMNHEYMSWYRQDPGLGLRQIYYSMNVEVTDKGDVPEGYKVSRKEKRNFPLILESPSPNQTSLYFCASSLRQGISPEQFFGPGTRLTVLE
B4: OX747 Peptides 157/158 clone 5 TCR (TCR, V domains shown)
V domain 1: GQQLNQSPQSMFIQEGEDVSMNCTSSSIFNTWLWYKQDPGEGPVLLIALYKAGELTSNGRLTAQFGITRKDSFLNISASIPSDVGIYFCAGQQKTSGSRLTFGEGTQLTVNP
V domain 2: DGGITQSPKYLFRKEGQNVTLSCEQNLNHDAMYWYRQDPGQGLRLIYYSQIVNDFQKGDIAEGYSVSREKKESFPLTVTSAQKNPTAFYLCASSSPRDRVGQPQHFGDGTRLSILE
B5: OX747 Peptides 157/158 clone 4 TCR (TCR, V domains shown)
V domain 1: AQKVTQAQTEISVVEKEDVTLDCVYETRDTTYYLFWYKQPPSGELVFLIRRNSFDEQNEISGRYSWNFQKSTSSFNFTITASQVVDSAVYFCALSEMNRDDKIIFGKGTRLHILP
V domain 2: NAGVMQNPRHLVRRRGQEARLRCSPMKGHSHVYWYRQLPEEGLKFMVYLQKENIIDESGMPKERFSAEFPKEGPSILRIQQVVRGDSAAYFCASSPTGVSGNTIYFGEGSWLTVVE
B6: OX747 Peptides 157/158 clone 1 TCR (TCR)
TCR alpha 1: KNEVEQSPQNLTAQEGEFITINCSYSVGISALHWLQQHPGGGIVSLFMLSSGKKKHGRLIATINIQEKHSSLHITASHPRDSAVYICAVSTGGATNKLIFGTGTLLAVQPNIQNPDPAVYQLRD
TCR alpha 2: KNEVEQSPQNLTAQEGEFITINCSYSVGISALHWLQQHPGGGIVSLFMLSSGKKKHGRLIATINIQEKHSSLHITASHPRDSAVYICAVQEGETSGSRLTFGEGTQLTVNPDIQNPDPAVYQLRD
TCR beta: NAGVTQTPKFQVLKTGQSMTLQCAQDMNHEYMSWYRQDPGMGLRLIHYSVGAGITDQGEVPNGYNVSRSTTEDFPLRLLSAAPSQTSVYFCASSPGFNGNTIYFGEGSWLTVVEDLNKVFPPEVAVFEPS
B7: OX747 Peptides 157/158 clone 2 TCR (TCR, V domains shown)
V domain 1: AQKVTQAQTEISVVEKEDVTLDCVYETRDTTYYLFWYKQPPSGELVFLIRRNSFDEQNEISGRYSWNFQKSTSSFNFTITASQVVDSAVYFCALSEATYNTDKLIFGTGTRLQVFP
V domain 2: ETGVTQSPTHLIKTRGQQVTLRCSSQSGHNTVSWYQQALGQGPQFIFQYYREEENGRGNFPPRFSGLQFPNYSSELNVNALELDDSALYLCASSSTGTDYGYTFGSGTRLTVVE
B8: OX747 Peptides 157/158 clone 3 TCR (TCR, V domains shown)
V domain 1: QKEVEQNSGPLSVPEGAIASLNCTYSDRGSQSFFWYRQYSGKSPELIMFIYSNGDKEDGRFTAQLNKASQYVSLLIRDSQPSDSATYLCAGRQTSYDKVIFGPGTSLSVIP
V domain 2: not shown
B9: OX1149 Peptide 190 clone 5 TCR (TCR, V domains shown)
V domain 1: DQQVKQNSPSLSVQEGRISILNCDYTNSMFDYFLWYKKYPAEGPTFLISISSIKDKNEDGRFTVFLNKSAKHLSLHIVPSQPGDSAVYFCAATRAGGTSYGKLTFGQGTILTVHP
V domain 2: SQTIHQWPATLVQPVGSPLSLECTVEGTSNPNLYWYRQAAGRGLQLLFYSVGIGQISSEVPQNLSASRPQDRQFILSSKKLLLSDSGFYLCAWSVLAGVSQYFGPGTRLLVLE
B10: OX1149 Peptide 190 clone 4 TCR (TCR, V domains shown)
V domain 1: SQQGEEDPQALSIQEGENATMNCSYKTSINNLQWYRQNSGRGLVHLILIRSNEREKHSGRLRVTLDTSKKSSSLLITASRAADTASYFCATKGGNNRLAFGKGNQVVVIP
V domain 2: EPEVTQTPSHQVTQMGQEVILRCVPISNHLYFYWYRQILGQKVEFLVSFYNNEISEKSEIFDDQFSVERPDGSNFTLKIRSTKLEDSAMYFCASSAWTGETGYTFGSGTRLTVVE
B11: OX1149 Peptide 190 clone 2 TCR (TCR, V domains shown)
V domain 1: SQQGEEDPQALSIQEGENATMNCSYKTSINNLQWYRQNSGRGLVHLILIRSNEREKHSGRLRVTLDTSKKSSSLLITASRAADTASYFCAAMYSGGGADGLTFGKGTHLIIQP
V domain 2: EPEVTQTPSHQVTQMGQEVILRCVPISNHLYFYWYRQILGQKVEFLVSFYNNEISEKSEIFDDQFSVERPDGSNFTLKIRSTKLEDSAMYFCASSTQGQAYEQYFGPGTRLTVTE
B12: OX1149 Peptide 190 clone 3 TCR (TCR, V domains shown)
V domain 1: GENVEQHPSTLSVQEGDSAVIKCTYSDSASNYFPWYKQELGKRPQLIIDIRSNVGEKKDQRIAVTLNKTAKHFSLHITETQPEDSAVYFCAARGGSNYKLTFGKGTLLTVNP
V domain 2: DAGVIQSPRHEVTEMGQEVTLRCKPISGHDYLFWYRQTMMRGLELLIYFNNNVPIDDSGMPEDRFSAKMPNASFSTLKIQPSEPRDSAVYFCASSTGGEQYFGPGTRLTVTE
B13: OX1149 Peptide 190 clone 1 TCR (TCR, V domains shown)
V domain 1: SQQGEEDPQALSIQEGENATMNCSYKTSINNLQWYRQNSGRGLVHLILIRSNEREKHSGRLRVTLDTSKKSSSLLITASRAADTASYFCATDEAAGNKLTFGGGTRVLVKP
V domain 2: EPEVTQTPSHQVTQMGQEVILRCVPISNHLYFYWYRQILGQKVEFLVSFYNNEISEKSEIFDDQFSVERPDGSNFTLKIRSTKLEDSAMYFCASKRESLATGELFFGEGSRLTVLE

Biological target: T1, OX289-073 (human)
T1 peptide: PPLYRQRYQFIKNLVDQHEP
Assay: cell-based or functional assay

Row | Binder | Clone size (percent repertoire), IFNγ+ sorted T cells after peptide stimulation
1 | B1 | 25.6 % of repertoire
2 | B2 | 8.67 % of repertoire
3 | B3 | 32.3 % of repertoire

Biological target: T2, OX289-074 (human)
T2 peptide: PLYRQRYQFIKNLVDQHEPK
Assay: cell-based or functional assay

Row | Binder | Clone size (percent repertoire), IFNγ+ sorted T cells after peptide stimulation
4 | B1 | 25.6 % of repertoire
5 | B2 | 8.67 % of repertoire
6 | B3 | 32.3 % of repertoire

Biological target: T3, OX747-157 (human)
T3 peptide: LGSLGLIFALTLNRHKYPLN
Assay: cell-based or functional assay

Row | Binder | Clone size (percent repertoire), IFNγ+ sorted T cells after peptide stimulation
7 | B4 | 7.7 % of repertoire
8 | B5 | 7.9 % of repertoire
9 | B6 | 15.5 % of repertoire
10 | B7 | 9.8 % of repertoire
11 | B8 | 8.7 % of repertoire

Biological target: T4, OX747-158 (human)
T4 peptide: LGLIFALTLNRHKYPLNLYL
Assay: cell-based or functional assay

Row | Binder | Clone size (percent repertoire), IFNγ+ sorted T cells after peptide stimulation
12 | B4 | 7.7 % of repertoire
13 | B5 | 7.9 % of repertoire
14 | B6 | 15.5 % of repertoire
15 | B7 | 9.8 % of repertoire
16 | B8 | 8.7 % of repertoire

Biological target: T5, OX1149-190 (human)
T5 peptide: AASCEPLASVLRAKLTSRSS
Assay: cell-based or functional assay

Row | Binder | Clone size (percent repertoire), IFNγ+ sorted T cells after peptide stimulation
17 | B9 | 4.8 % of repertoire
18 | B10 | 5.7 % of repertoire
19 | B11 | 17.3 % of repertoire
20 | B12 | 9 % of repertoire
21 | B13 | 18.3 % of repertoire
